Assay results reported in patent publication US20080063651A1 (published 2008).

Biological target: T1, Recombinant human TNF-α (human, UniProt P01375 77-233)
T1 construct: also called tumor necrosis factor-α; biotinylated TNF-α
Experiment: 35S-labelled free protein with biotinylated TNF-α, biotin capture membrane, phosphorimaging

T1 sequence (P01375 77-233 limits assumed): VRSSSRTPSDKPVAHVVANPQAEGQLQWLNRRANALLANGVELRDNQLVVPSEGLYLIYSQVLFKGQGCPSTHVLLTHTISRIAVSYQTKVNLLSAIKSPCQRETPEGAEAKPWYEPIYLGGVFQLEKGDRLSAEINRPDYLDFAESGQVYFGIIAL

B1: clone T09.12 (designed binder)
chain: VSDVPRDLEVVAATPTSLLISWRPTSNPPRYYRITYGETGGNSPVQEFTVPPWASTATISGLKPGVDYTITVYAVTAQTGHHLHDKPISINYRT
In the case of B1, the Kd is reported as 0.004 µM.

B2: clone M12.04 (designed binder)
chain: VSDVPGDLEVVAATPTSLLIGWSMTPNWPRYYRIAYGETGGDSPVQEFTVPPWASIAIIGGLKPGVDYTITVYAVTHRDTPISINYRT
Work on B2 yielded a Kd of 20 µM.
